Results reported in IntAct's records for PubMed 10512882.

B1: Focal adhesion kinase 1 (Gallus gallus (Chicken)), Q00944 (parent)
chain: MAAAYLDPNLNHTPSSSAKTHLGTGMERSPGAMERVLKVFHYFENSSEPTTWASIIRHGDATDVRGIIQKIVDCHKVKNVACYGLRLSHLQSEEVHWLHLDMGVSNVREKFELAHPPEEWKYELRIRYLPKGFLNQFTEDKPTLNFFYQQVKNDYMLEIADQVDQEIALKLGCLEIRRSYGEMRGNALEKKSNYEVLEKDVGLRRFFPKSLLDSVKAKTLRKLIQQTFRQFANLNREESILKFFEILSPVYRFDKECFKCALGSSWIISVELAIGPEEGISYLTDKGANPTHLADFNQVQTIQYSNSEDKDRKGMLQLKIAGAPEPLTVTAPSLTIAENMADLIDGYCRLVNGATQSFIIRPQKEGERALPSIPKLANNEKQGVRSHTVSVSETDDYAEIIDEEDTYTMPSTRDYEIQRERIELGRCIGEGQFGDVHQGIYMSPENPAMAVAIKTCKNCTSDSVREKFLQEALTMRQFDHPHIVKLIGVITENPVWIIMELCTLGELRSFLQVRKFSLDLASLILYAYQLSTALAYLESKRFVHRDIAARNVLVSATDCVKLGDFGLSRYMEDSTYYKASKGKLPIKWMAPESINFRRFTSASDVWMFGVCMWEILMHGVKPFQGVKNNDVIGRIENGERLPMPPNCPPTLYSLMTKCWAYDPSRRPRFTELKAQLSTILEEEKLQQEERMRMESRRQVTVSWDSGGSDEAPPKPSRPGYPSPRSSEGFYPSPQHMVQPNHYQVSGYSGSHGIPAMAGSIYPGQASLLDQTDSWNHRPQEVSAWQPNMEDSGTLDVRGMGQVLPTHLMEERLIRQQQEMEEDQRWLEKEERFLVMKPDVRLSRGSIEREDGGLQGPAGNQHIYQPVGKPDHAAPPKKPPRPGAPHLGSLASLNSPVDSYNEGVKIKPQEISPPPTANLDRSNDKVYENVTGLVKAVIEMSSKIQPAPPEEYVPMVKEVGLALRTLLATVDESLPVLPASTHREIEMAQKLLNSDLAELINKMKLAQQYVMTSLQQEYKKQMLTAAHALAVDAKNLLDVIDQARLKMISQSRPH

Variants of: B1
Conditions: with src_chick SRC

effect of a mutation on the interaction | Variant
decreasing interaction | Y576F;Y577F
disrupting interaction | Y397F
decreasing interaction | K454R
disrupting interaction | Y397F;K454R
